Where a SMILES comes first, the peptide text is derived from it. Bridges are numbered along the chain shown (N, C = ends). [ ]: non-standard residue; d: D form. Oic = O=C(O)[C@@H]1C[C@@H]2CCCC[C@@H]2N1; d(cisHyp) = O=C(O)[C@H]1C[C@@H](O)CN1; Hyp = O=C(O)[C@@H]1C[C@@H](O)CN1; Tic = O=C(O)[C@@H]1Cc2ccccc2CN1; Pip = O=C(O)[C@@H]1CCCCN1; Dab = NCC[C@H](N)C(=O)O
T1: FPR1 (Homo sapiens, UniProt P21462)
T1 construct: host or cells: CHO (PathHunter CHO-FPR1 β-arrestin cells)
T1 sequence (P21462 1-350): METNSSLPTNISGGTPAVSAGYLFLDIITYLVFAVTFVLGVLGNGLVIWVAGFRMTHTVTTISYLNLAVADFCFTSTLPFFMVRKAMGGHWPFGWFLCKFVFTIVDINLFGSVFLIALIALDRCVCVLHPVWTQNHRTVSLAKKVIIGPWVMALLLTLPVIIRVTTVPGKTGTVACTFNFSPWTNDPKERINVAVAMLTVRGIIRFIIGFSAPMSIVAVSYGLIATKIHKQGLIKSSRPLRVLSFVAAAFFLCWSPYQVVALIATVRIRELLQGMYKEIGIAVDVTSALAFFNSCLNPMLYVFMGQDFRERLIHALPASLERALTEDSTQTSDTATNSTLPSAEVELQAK

T2: Formyl-Peptide Receptor 1 (UniProt P21462 1-350, limits assumed)
T2 sequence (looked up): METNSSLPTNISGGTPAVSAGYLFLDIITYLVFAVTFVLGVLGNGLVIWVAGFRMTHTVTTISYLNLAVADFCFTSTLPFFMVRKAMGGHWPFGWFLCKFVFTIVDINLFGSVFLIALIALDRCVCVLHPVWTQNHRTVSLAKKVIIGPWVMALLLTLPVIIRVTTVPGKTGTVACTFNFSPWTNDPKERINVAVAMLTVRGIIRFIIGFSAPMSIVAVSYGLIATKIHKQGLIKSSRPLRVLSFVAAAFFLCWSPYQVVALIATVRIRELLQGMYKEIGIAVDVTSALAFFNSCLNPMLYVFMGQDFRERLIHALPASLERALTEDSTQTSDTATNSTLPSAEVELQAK


Molecular target: T1, FPR1
Assay: FPR1 β-arrestin recruitment assay (PathHunter CHO-FPR1, antagonistic mode)
Assay type: cell-based
Conditions: CHO FPR1 β-arrestin cells; antagonistic assay vs reference agonist fMLF at its EC80; 60 min preincubation
Description: 2.2 FPR1 β-Arrestin Recruitment Assay
The PathHunter CHO—FPR1 (DiscoverX) assay was performed according to the manufacturer's protocol. In brief, CHO FPR1 β-arrestin cells were seeded at a density of 9000 cells per well in 20 μl of Ham's F12 medium (Invitrogen) in black 384-well culture plates and incubated overnight at 37° C. in a humidified atmosphere with 5% CO2. The next day, serial dilutions of the β-hairpin peptidomimetics of this invention have been prepared in DMSO and subsequently diluted in HBSS buffer supplemented with 20 mM Hepes and 0.1% BSA.
For antagonistic assay, 5 μl of compound solution or buffer was added to the cells with a final DMSO concentration of 0.5% (v/v). The plate was incubated for 60 min at 37° C. with 5% CO2 before addition of […] of the reference agonist fMLF peptide (Sigma-Aldrich) at its EC80 concentration. After 90 min of incubation at 37° C. with 5% CO2, 15 μl of beta-Glo detection reagent (Promega) were added. Reaction was developed for 20 min at room temperature and chemiluminescence was measured with a Victor2V (Perkin Elmer) luminescence reader.

IC50 [nM] | Molecule
189 ± 65 | CC[C@H](C)[C@@H]1NC(=O)[C@H]([C@@H](C)O)NC(=O)[C@H](Cc2c[nH]c3ccccc23)NC(=O)[C@H]2CCCN2C(=O)CNC(=O)[C@H](Cc2c[nH]cn2)NC(=O)[C@@H]2CSSC[C@H](NC1=O)C(=O)N[C@@H](Cc1ccc(O)cc1)C(=O)N[C@@H](CCC(=O)O)C(=O)N[C@@H](CCCCN)C(=O)N1CCC[C@@H]1C(=O)N[C@@H](CCN)C(=O)N[C@@H](Cc1ccc(O)cc1)C(=O)N[C@@H](Cc1c[nH]cn1)C(=O)N[C@@H](CCCCN)C(=O)N2 [Ex. 89, cyclo(-Tyr-His-Lys-Cys-His-Gly-^DPro-Trp-Thr-Ile-Cys-Tyr-Glu-Lys-^DPro-Dab-)] (cyclo(YHKCHG[dP]WTICYEK[dP][Dab]); disulfide 4-11)

Molecular target: T2, Formyl-Peptide Receptor 1
Assay: cell-based or functional assay
Conditions: not given

β-Arrestin IC50 [nM] | Molecule
267 | cyclo(YHKCHG[dP]WTICYEK[dP][Oic]) (disulfide 4-11) [cyclo(-Tyr-His-Lys-Cys-His-Gly-^DPro-Trp-Thr-Ile-Cys-Tyr-Glu-Lys-^DPro-Oic-)]
147 | cyclo(YHACHG[dP]WTICYQK[dP]W) (disulfide 4-11; SMILES CC[C@H](C)[C@@H]1NC(=O)[C@H]([C@@H](C)O)NC(=O)[C@H](Cc2c[nH]c3ccccc23)NC(=O)[C@H]2CCCN2C(=O)CNC(=O)[C@H](Cc2c[nH]cn2)NC(=O)[C@@H]2CSSC[C@H](NC1=O)C(=O)N[C@@H](Cc1ccc(O)cc1)C(=O)N[C@@H](CCC(N)=O)C(=O)N[C@@H](CCCCN)C(=O)N1CCC[C@@H]1C(=O)N[C@@H](Cc1c[nH]c3ccccc13)C(=O)N[C@@H](Cc1ccc(O)cc1)C(=O)N[C@@H](Cc1c[nH]cn1)C(=O)N[C@@H](C)C(=O)N2) [cyclo(-Tyr-His-Ala-Cys-His-Gly-^DPro-Trp-Thr-Ile-Cys-Tyr-Gln-Lys-^DPro-Trp-)]
115 | cyclo(YHKCHG[dP]WTICYEK[dP][Tic]) (disulfide 4-11) [cyclo(-Tyr-His-Lys-Cys-His-Gly-^DPro-Trp-Thr-Ile-Cys-Tyr-Glu-Lys-^DPro-Tic-)]
376 | cyclo(YHKCHG[dP]WTICYEK[dP][Hyp]) (disulfide 4-11) [cyclo(-Tyr-His-Lys-Cys-His-Gly-^DPro-Trp-Thr-Ile-Cys-Tyr-Glu-Lys-^DPro-Pro((4R)OH)-)]
485 | cyclo(YHKCHG[d(cisHyp)]WTICYEK[dP]P) (disulfide 4-11) [cyclo(-Tyr-His-Lys-Cys-His-Gly-^DPro((4R)OH)-Trp-Thr-Ile-Cys-Tyr-Glu-Lys-^DPro-Pro-)]
189 | cyclo(YHKCHG[dP]WTICYEK[dP][Dab]) (disulfide 4-11; SMILES CC[C@H](C)[C@@H]1NC(=O)[C@H]([C@@H](C)O)NC(=O)[C@H](Cc2c[nH]c3ccccc23)NC(=O)[C@H]2CCCN2C(=O)CNC(=O)[C@H](Cc2c[nH]cn2)NC(=O)[C@@H]2CSSC[C@H](NC1=O)C(=O)N[C@@H](Cc1ccc(O)cc1)C(=O)N[C@@H](CCC(=O)O)C(=O)N[C@@H](CCCCN)C(=O)N1CCC[C@@H]1C(=O)N[C@@H](CCN)C(=O)N[C@@H](Cc1ccc(O)cc1)C(=O)N[C@@H](Cc1c[nH]cn1)C(=O)N[C@@H](CCCCN)C(=O)N2) [cyclo(-Tyr-His-Lys-Cys-His-Gly-^DPro-Trp-Thr-Ile-Cys-Tyr-Glu-Lys-^DPro-Dab-)]
161 | cyclo(YHKCHG[dP]WTICYEK[dP][Pip]) (disulfide 4-11) [cyclo(-Tyr-His-Lys-Cys-His-Gly-^DPro-Trp-Thr-Ile-Cys-Tyr-Glu-Lys-^DPro-Pip-)]
93 | cyclo(YH[Dab]CWG[dP]WTICYEK[dP]P) (disulfide 4-11) [cyclo(-Tyr-His-Dab-Cys-Trp-Gly-^DPro-Trp-Thr-Ile-Cys-Tyr-Glu-Lys-^DPro-Pro-)]

— patent US9957297B2, “Template-fixed peptidomimetics as inhibitors of FPR1” (POLYPHOR AG, priority 2011, dated 2018)
